Laboratory results published in CN114106176A (SHENZHEN PHENPENG BIOTHERAPY CO LTD, dated 2022).

Target: T1, 人CD22胞外段缀合His标签 (hCD22-His, ACRO, CD2-H52H8) (human, UniProt P20273 20-687)
T1 construct: extracellular domain; Bought recombinant protein; also called 人类hCD22-His; not shown: His tag
T1 sequence (looked up): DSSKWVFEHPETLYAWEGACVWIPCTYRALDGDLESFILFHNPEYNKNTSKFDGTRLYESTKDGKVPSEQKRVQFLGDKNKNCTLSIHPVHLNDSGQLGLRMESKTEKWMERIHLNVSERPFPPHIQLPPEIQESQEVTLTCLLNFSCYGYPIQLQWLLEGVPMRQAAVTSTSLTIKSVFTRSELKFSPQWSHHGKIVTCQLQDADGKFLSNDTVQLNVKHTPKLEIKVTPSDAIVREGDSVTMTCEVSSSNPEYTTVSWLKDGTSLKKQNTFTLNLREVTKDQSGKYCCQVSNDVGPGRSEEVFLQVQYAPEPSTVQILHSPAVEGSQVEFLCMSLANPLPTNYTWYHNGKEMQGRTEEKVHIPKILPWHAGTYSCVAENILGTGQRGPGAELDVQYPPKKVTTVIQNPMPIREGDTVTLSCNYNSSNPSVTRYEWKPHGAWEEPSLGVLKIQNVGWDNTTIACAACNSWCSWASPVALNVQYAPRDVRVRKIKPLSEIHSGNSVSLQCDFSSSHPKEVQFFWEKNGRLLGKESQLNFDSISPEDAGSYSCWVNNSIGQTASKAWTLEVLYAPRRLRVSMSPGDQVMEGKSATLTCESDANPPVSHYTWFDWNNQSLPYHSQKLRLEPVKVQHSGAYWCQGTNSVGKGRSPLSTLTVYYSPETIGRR
Assay: ELISA, hCD22-His coated at 2 ug/ml, 3-fold antibody dilutions

B1: 5CD22-111-1-C3 (antibody, mouse IgG1, kappa, V domains shown)
VH: EVKLEESGGGLVQPGGFMKLSCVASGFTFSNYWMNWVRQSPERGLEWVAEIRLKSNDYATHYAESVKGRFTISRDDSKSNVYLQMNNLRAEDTGIYYCTRVYYYGRDYAMDYWGQGTSVTVSS
VL: QIVLTQSPAIMSASLGERVTMTCTASSSVSSIYLHWYQQKPGSSPKLWIYSTSNLASGVPGRFSGSGSGTSYSLTISSMEAEDAATYYCHQYHRSPRTFGGGTKLEIKR
  binding result: binds
